The assay concerns the target T1, peptide-8 (DEIVNKVL), derived from the ESCRT-III family member Vps2p.
T1 peptide: {5(6)‑carboxyfluorescein}-DEIVNKVL-NH2
Briefly: fluorescence polarisation. For orientation: Fluorescence polarisation rises when a labelled molecule tumbles more slowly, as on binding a larger partner.

B1: Vps4p^L7C/A43C (MIT domain stabilised by a disulfide bond) (enzyme, S. cerevisiae, UniProt P52917 1-437, looked up)
chain: MSTGDFCTKGIELVQKAIDLDTATQYEEAYTAYYNGLDYLMLCLKYEKNPKSKDLIRAKFTEYLNRAEQLKKHLESEEANAAKKSPSAGSGSNGGNKKISQEEGEDNGGEDNKKLRGALSSAILSEKPNVKWEDVAGLEGAKEALKEAVILPVKFPHLFKGNRKPTSGILLYGPPGTGKSYLAKAVATEANSTFFSVSSSDLVSKWMGESEKLVKQLFAMARENKPSIIFIDEVDALTGTRGEGESEASRRIKTELLVQMNGVGNDSQGVLVLGATNIPWQLDSAIRRRFERRIYIPLPDLAARTTMFEINVGDTPCVLTKEDYRTLGAMTEGYSGSDIAVVVKDALMQPIRKIQSATHFKDVSTEDDETRKLTPCSPGDDGAIEMSWTDIEADELKEPDLTIKDFLKAIKSTRPTVNEDDLLKQEQFTRDFGQEGN
modifications: disulfide bond between C7 and C43 of the MIT domain
For B1, the “fold tighter than Vps4p” value was 8 fold.

Source of the values: article PMC11398535 (bioRxiv, 2024).
